Test results from the DeepSol protein solubility set.

Test: soluble on expression in E. coli; label from the status in PepcDB or PDB records

| Sequence | soluble on expression in E. coli |
| --- | --- |
| MLGDVYHLFSGGKDSSLAAWILRKLGYEVRLVTITFGVLDNWKYAKETADILGFEHEVVRLPRELLNMAVEMCIEDGKPGRAIQFLHEKALEYVASRSYVKRISDGTRRDDKVPFLDLRKARSLEDRFNVAYIRPLLGLGYKTIRELANSIFVIEERESEKLEKGDYEAELRYMLRERGINPKTIFPSRHMQSRVVGIKDDELGRS | soluble |
| MLGNLKPQAPDKILALMGEFRADPRQGKIDLGVGVYKDATGHTPIMRAVHAAEQRMLETETTKTYAGLSGEPEFQKAMGELILGDGLKSETTATLATVGGTGALRQALELARMANPDLRVFVSDPTWPNHVSIMNFMGLPVQTYRYFDAETRGVDFEGMKADLAAAKKGDMVLLHGCCHNPTGANLTLDQWAEIASILEKTGALPLIDLAYQGFGDGLEEDAAGTRLIASRIPEVLIAASCSKNFGIYRERTGCLLALCADAATRELAQGAMAFLNRQTYSFPPFHGAKIVSTVLTTPELRADWMAELEAVRSGMLRLREQLAGELRDLSGSDRFGFVAEHRGMFSRLGATPEQVKRIKEEFGIYMVGDSRINIAGLNDNTIPILARAIIEVGV | soluble |
| MLGSRNIKFSVQIFKKRRSNCNVRCVVCGREIETGSLCGKCMVEKEEVAKIDEFEITVCSRCNLIRLGNRWVERSVEEVIEEMVLRNARVVEEFNVTEVAISQEHCVFRGEISGDEVKILVPLKYRINKVLCEKCSREAGGYYESIVQLRAAGRELSDEEIEKALEIVDEVISSAPEDQKAFISKLERKREGVNIFFGSRNIGKKVSRMIMKKLGGSITESKKLHTRIDGRDVYRFTYSVKLPEYREGDIVEKEGRFAVVRNSVAGKGLDILTGKTVNLGNERVAVRREDLKSGVVVNADPNAVEVVCEDGRLVTTPKPSGAEIGAEVKVFEINGKFFSVYEGGQSSEELEHHHHHH | soluble |
| MLHLPTIETSSAGRRRRKANSEVDSGAEEPTATSSSDDKSDYRLDLKKRLTTFLTSNSQMASSDSGVSGVESTVEHDLSELKASDSPMSHDGADSPRPELDRTDIVVCGECHTSFSLSCFSNFIEHKVSNCGGKLTPSDDCEVTPRNFDRSRRRTFNPAALIRCGRSTSANALLPNYNMDVTTDTNDLGSSSKSLTCCNCKERFGDVWTLLKHSYDIHGLRVCQEAIPESDVSVTSTSSPTSNESMHMSSRYNHNDTSSKIMHQTIKSESTMMNSFCSERLKEIVTRAGEQDQKPLMALRRLMPSEETEEEQVSAFTSTSLLNSRASQPQLPTVSSSAGFQTSGSMPNVWMQPSMLAAMQEYYASIQQMPYPMTNSTAVALLNISNNLQQQQQQQQQLQQQQQNLIAAQPQVATPQPPAPTPLFQSLNRLSTADESSYTPRPASVAIRRRASPEEELTPPRKSMKIEEEDQLIVVDDGELAEPAARKPNNIKKERCNFCNKVFTNRSNLIVHLRSHTGEKPYKCQLCPYACAQSSKLTRHMRTHGQQGKETYHCYICRMPFSVHSTLEKHMRKCVVSTQGRREGGSPPERSIRPTPSALAEATSLLALSAPSISVPPQPQASTVGQNQSQSHQIVLNWLHALNASNSTPTATSKEDMIEADEDMEETEASDLQSHQPLTSESNQIATVAN | not soluble |
| MLIDTDFFLSNRSDSLVLDVRSPEEYRRGHIPGAESFPLFSDAERAEVGTLYVRHSRQAAVERGLEFVGPRMAEMVREARSLAAGRDIILYCWRGGMRSESVAWLLSVAGLRIRRLRGGYKAYRRHFPDILKLYPWRFIVLGGYTGSGKTPILNELTQMGEQVIDLEGLAHHKGSAFGALGQEQQPTTEHFMNLLHDALSACDPNRPIWVESESKTIGRVFLPDDFYKVMRQAPLIELSVPRPVRIAHIAKEYGVYDAEALANSFEHIARRMGGAATTQAITALKEGRLEEAVSLALDYYDKAYAHSLAEFRESSSARLAVETDTPHETAIKLLELSHIKGLQS | not soluble |
| MLIEPRDPLIVRDGRPFTNSPGARAKSLPFPLPQTLAGAYRTRRALLEGLPLPERAEEVLRWGLRGPLLAEEGEGGWRLLAPRPLDALKLGEALYPLRPLELPQGAGTNLPEGLSPVGLPSPALKEKPAPLPAFWYWESFLEWLLQDAPAGFAPRGHEGPVPETRTHVALDPAAQTAREGFLFQTSGLEFVRGRRRLALVLWPEGPEPEGVFPLGGERRLAFWQKGGPGVPPLPEEVVAGLLRHRAARLVFLTPAFLGEAYLPKGRAFQGASVVAAVVGRPLAVSGWNLKEGKPKPSRRAVPAGSVYFVRLPEAWGEGEVRDWAEKVWFQNLSEEEQDRRDGFGLAALGLWDGKLRRWEEA | soluble |
| MLIFEGKEISTDSEGYLKETTQWSEALAVAIAANEGIELSAEHWEVVRFVREFYLEFNTSPAIRMLVKAMANKFGEEKGNSRYLYRLFPKGPAKQATKIAGLPKPVKCI | not soluble |
| MLILGHPLIPSARFVFIKNTDAIHSNTNNDIVCFEAHPKNLELAKYCCENSVHFSVIFLSHKIETDTFFLFNAFKPLYCIFKDIKQAILAQQHATNYLLDSKILFFMDLNDTELWEICAKSQIDGVISKDSLLLK | soluble |
| MLILSEQEIQRLYTMEEAISDVKEILRQKQAGNVNTPERTVLSFPHYDASILYMPSVKTGAAAVKVVSIFPHNPPLGKPTTQGVIILTDTKTEEHRMLCNATYLTRLRTGALSAIAADYLAKREASRLAVIGTGAMAREQVAGMLEVRGIEHIFLYNRTRSKAERFALEGW | not soluble |
| MLINKTKRAEQNLNNLPFLALQAEQIEFLGSSAEFKTQIIELIRNAKKRIYVTALYWQKDEAGQEILDEIYRVKQENPHLDVKVLIDWHRAQRNLLGAEKSATNADWYCEQRQTYQLPDDPNMFFGVPINTREVFGVLHVKGFVFDDTVLYSGASINNVYLHQFEKYRYDRYQKITHAELADSMVNFINDYLLDFSAVYPLDVTNRPRTKEIRGNIRAYRKDLAQNGEYSLKSAVKLPNVLSVSPLFGLGASGNELNQVIEDLFLQVQKKLVICTPYFNFPRTLQHKIATLLENGKRVEIIVGDKVANDFYIPPEQPFKMAGALPYLYESNLRRFCEKFETQIESGQLVVRLWRDGDNTYHLKGVWVDDRYILLTGNNLNPRAWRLDAENGLLIYDPQQQLLAQVEKEQNQIRQHTKVLKHYTELEELNQYPEPVQKLLKKFARIKADKLVKMILAAALEHHHHHH | soluble |
| MLIQIDSNVLFANVDTLGNIVSTTTNGIGSAGKTTLDGHYSSISGFDQLGASHGAVIKGGIGSAMKTMQQLTEQVNWLKEALNSSRLAFSSQNNFVSRGMDIADEGGNVGGEEVVFPNRPDVVYEDFSFPQPVVQKASSIDELAAAFASTNDSEVEEAVATWKSLSEMATETSQDLRNVAAEVGEHNHGAVFDKAVERIGEIAANAESFAANASTMANHVGLMSQLKTMRMSDVLSAQQALSKIEDPMERKVLEEEFLSRLQSAIQSDVGQSVPVIRNLVTMRSTGGNSGQSIATGMETIAGNGKFSHTGLSSASGATLQPATMGQHPDNLGDFAAVNSRTGQSIDPFSLSTQQAGWTSPDFQPSAGGSSGLNPIKAPLTSAHSSMPASAQTVSTHPSSATGLGVTPIGPRADAMAMYPSANSKPHNSGLNGTSKIGGSSIAQLGASPQSGVSRSAAFGAAGTQSAHSARMSPMMGAPMGAAGSKKRGKTKSVTSSVEEDNNIAALLGESPAVVPGVIGSWVRG | not soluble |
| MLIVGEDFGMRVSVLASSSSGNATYIETPGHKVLVDAGLSGKKIETLMQSIGRDLTDVDSVFITHEHSDHVRGVGVLARRYPKLSVYANAKTFAALPKSVGKIPEDQLRLFDMGATLTLGDLDVESFGVSHDAAAPQFYQFHHDGKTFTILTDTGYVSDRVAGTIRDADAYVMECNHDLEMLRTGPYPWPLKQRILGDQGHLSNEDGADALMDVIGLRTKRIYLGHLSPHNNNKPLAHLTVASLLAQQGLAVDHDFRIYDTDPAVADPLFVVLEHHHHHH | not soluble |
| MLKELSILTGGDGVGFQSAPEQQSLQPAELKPVNVSINSIDELMLFFESLNYTPENFHGGNKSVPRITFDAVGEGWRSVSDQLPVKQKKMVFFRLMTPLVLLANEKVLQERQQVMSAPLDDAELIALAVKYKVISNPTQPLLASHRQALLERVDILPPSLVLAQAAKESGWGTSRFTLEGNALFGQWDFNGNGMEPKQKRQGMGRYGLARFETPLASVEGYLLNLNTHSAYYKMRQLRAQSRHANQMITGTALAGTLDRYSERGHAYVEMIRKMIRTNKLYLADEAYLNDDMPLHLLTRTN | soluble |
| MLKFENVTKSFKDGNRNIEAVKDTNFEINKGDIIALVGPSGSGKSTFLTMAGALQTPTSGHILINNQDITTMKQKALAKVRMSEIGFILQATNLVPFLTVKQQFTLLKKKNKNVMSNEDYQQLMSQLGLTSLLNKLPSEISGGQKQRVAIAKALYTNPSIILADEPTAALDTENAIEVIKILRDQAKQRKKACIIVTHDERLKAYCDRSYHMKDGVLNLENETVE | not soluble |
| MLKGKYTKIEKVNGVEREYLITDKYGITIGRIFIVDLNKDNRFCMFRMKIYKQGKSINTYIKEILSVFMEFLFKSNDINKVNIIVDEEVSTQPFVELGFAFEGIINKSIIEKNVLKDEFLFGMDYKNYNSDRINVFKLYGKSITLKVLTPEDAENMLQYYIKNKEHLKPFEPEREESFYTFEAQKQMLIENYKQFINGEGTNFGIYKDAKLIGKIQISGTIYGVFKSAIIGYSIDKDYQGKGYMKDALRVAEAYAFNVMNLHRIEASALVDNLRSQNVLIGCGFEKLGINKNYLFINGRWQDHITFYKTNNN | not soluble |
| MLKIGVITMALLSFLNAGWLGNLFDSTPTPYYKMPIDLSKAGNVTETDIRIDEKYSVYVELYYDYRKQKISGDRYGEIIDKYFGRHKLFPIFPIKLTVLKYEKTGTTMVVDKIYYTNSLGRTYSSREIDEFKLQEGSKYHIKVETVEDYPELAELNVEVVIGYIKAK | not soluble |
| MLKLYLPCCRNNSTFAIRFSYASIAVDLILKIRQYMKRLHWILLLMILLIPTESISAKKKTEKSDREIWCDVMYRMAAPVLSNMSEGLLKQNMLVELSPTWDGRNQNVTYMECFGRLMAGLAPWLSLPDDETPEGLQRKQLREWALKSYANAVDPASPDYLLWRQENQTLVDAAFLAESFLRSYDALWMPLDSITKQRYIAEFTDLRRVDPSYSNWLLFSATVESFLRKAGAPSDTYRISSSLRKIEEWYVGDGWYSDGPRFAFDYYNSFVIHPMYIEALEIITEAGKREKIGNMPGCNFHEAIRRAQRFGVILERLISPEGTLPVFGRSITYRTGSLQTLALLAWRNWLPEELSNGQVRAAMTAVIQRMFGDGRNFNTAGFLTLGFNGSQPGISDYYTNNGSLYMASLAFLPLGLSADDPFWTDASQSWTSKKAWEGEEFPKDHSYHKELEHHHHHH | not soluble |
| MLKMKNNGGGCLAYISDCSVYLPVWKLKRDEISKETGMPSMGGERAVAHWDEDSITMAVEAARKFDGAFDAVIFASSSPPFRIKQCASFIASALDLPDSTFTMDITDTMRAATDALITANEFVDSGRFSRVLVVAGDKIPTKPGTLYEQLYGDAAAAVVVEKEGGAKILGYSTSTKPLPGSWMLADDDTVRDYDMRVDARYGYAASVQKAAMPLFAKLGLSPADIDRIVASAPDPKSYQGLLKAVGARPEEFYFDSVGIAGSAHPLLLLATQLEREGRILLGGYGEGADVIAVEIEQAMDSNMGRMLESRKEISYGDYLFNRGFVGVRDAPDRPSLTKFWRDEKSIIRFYGMKCKSCGTVSYPISRCCIECGAKDNYEEVRLGERGKIYTFTIDYLVMPGNYAGDGVHPHFIAVVDLDGGGRVLFELTDTLRDFSGVECDAEVERTFRLLFEKNRFRYYGWKARLPRLEHHHHHH | soluble |
| MLKPETIHISGPAGILETIHIPSEQVPARGVAVINHPNPLQGGTNTNKVIQTAAKALSKLGFHCYLPNLRGVGGSGGTHDYGRGETQDCLAVIDYARAQHPEAPEFALSGFSFGGYVATFAAQARTPDLLLLIGAAVCHYTDRPEPSAVPNVAKTLMIHGAEDEVVEIGKALKWAEPQDLPVITIAGSTHFFHGKLIVLRDTILRFAPVCLNG | not soluble |
